The data set deals with B-Ub-MERS27-VME (UniProt P0CG48).

The results in this text go back to publication PMC7477763.

Chain of UniProt P0CG48 (P0CG48 whole entry, looked up): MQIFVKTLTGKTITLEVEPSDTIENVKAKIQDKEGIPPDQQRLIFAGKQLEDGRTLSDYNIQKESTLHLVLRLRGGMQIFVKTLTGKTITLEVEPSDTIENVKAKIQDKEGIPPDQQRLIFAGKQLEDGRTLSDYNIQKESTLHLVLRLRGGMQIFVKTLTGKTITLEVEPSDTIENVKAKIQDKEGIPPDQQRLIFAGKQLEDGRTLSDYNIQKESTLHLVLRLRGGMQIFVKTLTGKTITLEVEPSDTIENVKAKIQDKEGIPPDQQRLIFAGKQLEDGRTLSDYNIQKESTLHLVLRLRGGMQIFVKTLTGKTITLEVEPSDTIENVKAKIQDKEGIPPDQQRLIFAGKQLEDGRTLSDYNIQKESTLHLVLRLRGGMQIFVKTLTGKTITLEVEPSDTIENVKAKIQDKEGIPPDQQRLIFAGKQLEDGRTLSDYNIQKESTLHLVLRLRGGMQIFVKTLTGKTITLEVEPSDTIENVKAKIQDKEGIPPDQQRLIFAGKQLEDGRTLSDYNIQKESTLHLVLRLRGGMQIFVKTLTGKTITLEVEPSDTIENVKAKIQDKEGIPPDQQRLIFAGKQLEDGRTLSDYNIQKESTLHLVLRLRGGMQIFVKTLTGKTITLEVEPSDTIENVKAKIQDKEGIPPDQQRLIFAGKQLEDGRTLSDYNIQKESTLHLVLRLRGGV

Consider “Middle East respiratory syndrome papain-like protease (MERS PLpro), recombinant”, for which the kobs/I was 22 144 ± 1431 M^–1 s^–1.
